Changes are numbered by the printed parent chain.
Assays:
Human CD8a [1] = biological target: T1, Human CD8a (human, UniProt P01732 22-235); test: flow cytometry, isolated human T cells, CD4- gate, anti-human Fc detection
T1 construct: also called CD8α; human CD8a-FL
Description: FACS buffer with no polypeptide was used as a secondary antibody-only control. Polypeptide dilutions were added to an equal volume of cells, and assay plates were incubated for 30 minutes at 4° C. […] Assay plates were incubated at 4° C. for 20 minutes. […] The data was plotted and analyzed using GraphPad Prism analysis software. Flow cytometric detection was performed on an Intellicyt iQue Plus.

Cynomolgus monkey CD8a [2] = biological target: T2, Cynomolgus monkey CD8a (cynomolgus monkey); test: flow cytometry, HEK293F cells transfected with full-length cynomolgus CD8a (GFP+ gate)
T2 construct: whole, on cells; On transfected HEK293F cells (full length) or natively on cynomolgus PBMC T cells; also called cynomolgus CD8a-FL; cynomolgus monkey CD8α
Description: (§1) Binding of parental and two of the humanized CD8a-binding polypeptides described above was assessed by flow cytometry on transfected HEK293F cells. The HEK293F cells were transiently transfected with a plasmid encoding full length human or cynomolgus monkey CD8α followed by an IRES and GFP. The transfected cells were plated in a 96-well plate at 30,000 cells per well in FACS buffer (PBS, 1% BSA, 0.1% NaN₃, pH 7.4). Test polypeptides were then diluted to 2× the final concentration of 500 nM and 3-, 4-, and 5-fold serial dilutions were made. FACS buffer with no polypeptide was used as a secondary antibody-only control. Test polypeptides were added to an equal volume of cells, and assay plates were incubated for 30 minutes at 4° C. After washing twice with 150 μL of FACS buffer per well, the cells were resuspended in FACS buffer with fluorescently-labeled anti-human Fc antibody diluted 1:2000. Assay plates were incubated at 4° C. for 20 minutes. After one additional wash with 150 μL of FACS buffer, bound polypeptide was detected by flow cytometry. Flow cytometric detection was performed on an Intellicyt iQue Plus. CD8a-expressing transfected cells were gated as GFP positive, and polypeptide binding was measured as median fluorescence at 647 nm. The data was plotted and analyzed using GraphPad Prism analysis software.

Human CD8a [3] = biological target: T1, Human CD8a; test: flow cytometry, isolated human T cells, CD3+CD4- gate
Description: (§2) Binding of parental and two humanized CD8a-binding polypeptides described above was assessed by flow cytometry on isolated human T cells and on isolated cynomolgus monkey PBMC. The isolated cells were plated in a 96-well plate at 200,000 cells per well for cynomolgus monkey PBMC, and 50,000 cells per well for human T cells in FACS buffer (PBS, 1% BSA, 0.1% NaN₃, pH 7.4). […] FACS buffer alone was used as a secondary antibody-only control. Polypeptide dilutions were added to an equal volume of cells, and assay plates were incubated for 30 minutes at 4° C. After washing twice with 150 μL of FACS buffer per well, the cells were resuspended in FACS buffer with fluorescently-labeled anti-human antibody diluted 1:1000 to detect CD8α binding, and fluorescently labeled anti-CD3 antibody (clone SP34.2) diluted 1:40, and anti-CD4 antibody (clone OKT4) diluted 1:100. Assay plates were incubated at 4° C. for 20 minutes. After one additional wash with 150 μL of FACS buffer, CD8α binding was detected by flow cytometry on CD3+CD4− cells. Binding was measured on these cell populations as mean fluorescence at 647 nm. The data was plotted and analyzed using GraphPad Prism analysis software. Flow cytometric detection was performed on an ACEA Biosciences Novocyte-Quanteon Flow Cytometer. The results are shown in Table 6 and 7 and in FIGS. 4A-B.

Human CD8a [4] = biological target: T1, Human CD8a; test: flow cytometry, HEK293F cells transfected with full-length human CD8a (GFP+ gate)
Description: as §1

Cynomolgus monkey CD8a [5] = biological target: T2, Cynomolgus monkey CD8a; test: flow cytometry, cynomolgus PBMC, CD3+CD4- gate
Description: as §2

IL-2 receptor = biological target: T3, IL-2 receptor (human, UniProt P01589 22-272; P14784 27-551; P31785 23-369); test: cell-based or functional assay
T3 sequence (looked up) 1: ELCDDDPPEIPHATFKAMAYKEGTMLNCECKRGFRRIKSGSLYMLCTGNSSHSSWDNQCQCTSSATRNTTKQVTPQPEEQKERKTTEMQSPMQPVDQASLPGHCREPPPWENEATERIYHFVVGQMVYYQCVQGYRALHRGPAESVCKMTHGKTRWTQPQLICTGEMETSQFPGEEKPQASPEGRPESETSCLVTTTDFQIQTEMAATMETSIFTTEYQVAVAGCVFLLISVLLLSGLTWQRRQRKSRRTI
T3 sequence (looked up) 2: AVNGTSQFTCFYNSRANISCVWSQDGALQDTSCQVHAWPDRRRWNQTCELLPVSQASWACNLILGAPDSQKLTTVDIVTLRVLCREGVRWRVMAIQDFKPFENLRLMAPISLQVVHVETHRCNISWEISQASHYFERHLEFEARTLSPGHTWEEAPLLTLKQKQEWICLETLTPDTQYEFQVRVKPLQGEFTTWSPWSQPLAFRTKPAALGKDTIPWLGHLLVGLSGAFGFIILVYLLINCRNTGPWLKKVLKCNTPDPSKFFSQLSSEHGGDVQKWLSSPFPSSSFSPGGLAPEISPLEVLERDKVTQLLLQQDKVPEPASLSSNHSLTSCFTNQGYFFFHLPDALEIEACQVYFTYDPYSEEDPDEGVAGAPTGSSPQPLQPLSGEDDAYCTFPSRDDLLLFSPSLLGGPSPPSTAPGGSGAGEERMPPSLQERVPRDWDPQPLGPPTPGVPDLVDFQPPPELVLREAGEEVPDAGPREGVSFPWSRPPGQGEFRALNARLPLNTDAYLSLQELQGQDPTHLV
T3 sequence (looked up) 3: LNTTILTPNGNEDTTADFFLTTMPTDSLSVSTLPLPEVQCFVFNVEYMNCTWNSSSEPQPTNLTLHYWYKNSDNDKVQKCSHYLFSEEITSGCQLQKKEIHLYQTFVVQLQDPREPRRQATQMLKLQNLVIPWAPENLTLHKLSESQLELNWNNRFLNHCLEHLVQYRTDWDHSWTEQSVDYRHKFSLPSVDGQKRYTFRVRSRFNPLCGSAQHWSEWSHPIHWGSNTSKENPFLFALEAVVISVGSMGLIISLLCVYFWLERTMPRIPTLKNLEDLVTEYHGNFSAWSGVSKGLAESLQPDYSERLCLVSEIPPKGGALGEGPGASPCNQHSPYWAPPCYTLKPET

Cynomolgus monkey CD8a [6] = biological target: T2, Cynomolgus monkey CD8a; test: flow cytometry, cynomolgus PBMC, PI-CD3+CD4- gate
Description: (§3) Binding of four polypeptides comprising a humanized CD8a-binding VHH domain fused to an xELL fc region was assessed by flow cytometry on isolated human T cells and on isolated human or cynomolgus monkey peripheral blood mononuclear cells (PBMC). The isolated cells were plated in a 96-well plate at 200,000 cells per well for cynomolgus monkey PBMC, and 100,000 cells per well for human T cells in FACS buffer (PBS, 1% BSA, 0.1% NaN₃, pH 7.4). […] FACS buffer alone was used as a secondary antibody-only control. Polypeptide dilutions were added to an equal volume of cells, and assay plates were incubated for 30 minutes at 4° C. After washing twice with 150 μL of FACS buffer per well, the cells were resuspended in FACS buffer with a fluorescently labeled anti-human IgG antibody diluted 1:1000 to detect CD8α binding, fluorescently labeled anti-CD3 antibody (clone SP34.2, 1:50, for PBMC preparations only), and fluorescently labeled anti-CD4 antibody (clone OKT4, 1:100). Propidium iodide (PI) was added at 1:2000 to distinguish live cells from dead cells. Assay plates were incubated at 4° C. for 30 minutes. After one additional wash with 150 μL of FACS buffer CD8α binding was detected by flow cytometry on PI−(CD3+) CD4− cells. Binding was measured on these cell populations as mean fluorescence intensity (MFI) at 647 nm. Flow cytometric detection was performed on an ACEA Biosciences Novocyte-Quanteon Flow Cytometer. The data were plotted and analyzed using GraphPad Prism analysis software. The results are shown in Table 12 and 13 and in FIGS. 10A-D.

Cynomolgus monkey CD8a [7] = biological target: T2, Cynomolgus monkey CD8a; test: flow cytometry on CD8 T cells (PI- CD3+ CD4-) within cynomolgus monkey PBMC, fluorescent anti-human IgG secondary, MFI at 647 nm
Description: as §3, with “Flow cytometric detection was performed on an ACEA Biosciences Novocyte-Quanteon Flow Cytometer.” left out, “The results are shown in Table 12 and 13 and in FIGS. 10A-D.” left out

T1 sequence (P01732 22-235): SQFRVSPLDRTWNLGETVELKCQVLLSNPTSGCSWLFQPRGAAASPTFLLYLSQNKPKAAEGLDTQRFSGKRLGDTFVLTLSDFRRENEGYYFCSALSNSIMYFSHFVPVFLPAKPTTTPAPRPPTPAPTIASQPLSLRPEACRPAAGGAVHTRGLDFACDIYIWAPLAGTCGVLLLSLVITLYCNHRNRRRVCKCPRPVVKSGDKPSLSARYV

B1: hzB7v10-xELL-Fc (Fc fusion)
chain: EVQLVESGGGEVQPGGSLRLSCAASGFTFDDYAMSWVRQAPGKGLEWVSTITWEGEGTDYAESVKGRFTISRDNAKNTVYLQMSSLRAEDTAVYYCAKGSPELQYDSWGQGTLVTVKPGGDKTHTCPPCPAPGGPSVFLFPPKPKDTLMISRTPEVTCVVVDVSHEDPEVKFNWYVDGVEVHNAKTKPREEQYNSTYRVVSVLTVLHQDWLNGKEYKCKVSNKALPAPIEKTISKAKGQPREPQVYTLPPSRDELTKNQVSLTCLVKGFYPSDIAVEWESNGQPENNYKTTPPVLDSDGSFFLYSKLTVDKSRWQQGNVFSCSVMHEALHNHYTQKSLSLSPGK
notes: Homodimeric VHH-human IgG1 Fc xELL fusion
Question: B1 was tested. Which Kd (Human CD8a [1]) did it give?
Answer: Its Kd is 0.106 nM.

Question: What about the Kd (Cynomolgus monkey CD8a [2]) of the same binder?
Answer: Its Kd is 0.0973 nM.

Question: And the Kd (Human CD8a [3])?
Answer: The Kd was 0.085 nM.

Question: And the Kd (Human CD8a [4])?
Answer: The Kd was 0.565 nM.

Question: What about the Kd (Cynomolgus monkey CD8a [5]) of the same binder?
Answer: Its Kd is 0.0737 nM.

B2: hzB7v31-xELL-KiH Fc-IL-2 mutant (Fc fusion)
chain 1: QVQLVQSGGGEVQPGGSLRLSCAASGFTFDDYAMSWVRQAPGKGLEWVSTITWDAGGTYYAAPVKGRFTISRDNAKNTVYLQMSSLRAEDTAVYYCAKGSPELQYDTWGQGTLVTVKPDKTHTCPPCPAPGGPSVFLFPPKPKDTLMISRTPEVTCVVVDVSHEDPEVKFNWYVDGVEVHNAKTKPREEQYNSTYRVVSVLTVLHQDWLNGKEYKCKVSNKALPAPIEKTISKAKGQPREPQVCTLPPSRDELTKNQVSLSCAVKGFYPSDIAVEWESNGQPENNYKTTPPVLDSDGSFFLVSKLTVDKSRWQQGNVFSCSVMHEALHNRYTQKSLSLSPGK
chain 2: QVQLVQSGGGEVQPGGSLRLSCAASGFTFDDYAMSWVRQAPGKGLEWVSTITWDAGGTYYAAPVKGRFTISRDNAKNTVYLQMSSLRAEDTAVYYCAKGSPELQYDTWGQGTLVTVKPDKTHTCPPCPAPGGPSVFLFPPKPKDTLMISRTPEVTCVVVDVSHEDPEVKFNWYVDGVEVHNAKTKPREEQYNSTYRVVSVLTVLHQDWLNGKEYKCKVSNKALPAPIEKTISKAKGQPREPQVYTLPPCRDELTKNQVSLWCLVKGFYPSDIAVEWESNGQPENNYKTTPPVLDSDGSFFLYSKLTVDKSRWQQGNVFSCSVMHEALHNHYTQKSLSLSPG
Question: Which “EC50 of pSTAT5 induction in human CD8 T cells” value (IL-2 receptor) does the source give for B2 here?
Answer: Its value is < 30 pM.

B3: hzB7v31-xELL-Fc (Fc fusion)
chain: B2 chain 1 with C244Y, S261T, A263L, V302Y, R330H
notes: Homodimeric VHH-human IgG1 Fc xELL fusion; also called CD8a-hzB7v31-Fc-xELL
Question: Which results are given for B3?
Answer: Kd (Cynomolgus monkey CD8a [6]): 0.0389 nM; EC50 (read off the curve) (Cynomolgus monkey CD8a [7]): ~0.05 nM

Source: US20250320295A1 (INHIBRX BIOSCIENCES, published 2025)
